# Laboratory results reported in PMC4737144.
# Key:
# Hfq (Escherichia coli) = assay: EMSA
# [1] = tested on: Strep-RapZ (Escherichia coli); assay: EMSA
substance,measurement,setting,value
GlmY,binding signal (fold higher Hfq needed than for GlmZ),Hfq (Escherichia coli),10
same,Kd,[1],30 nM
